From publication PMC3947452

Target: Flag-tagged PKMζ (protein kinase M ζ) (human) (UniProt Q05513)
Assay: co-IP

UniProt Q05513, sequence (Q05513 184-592): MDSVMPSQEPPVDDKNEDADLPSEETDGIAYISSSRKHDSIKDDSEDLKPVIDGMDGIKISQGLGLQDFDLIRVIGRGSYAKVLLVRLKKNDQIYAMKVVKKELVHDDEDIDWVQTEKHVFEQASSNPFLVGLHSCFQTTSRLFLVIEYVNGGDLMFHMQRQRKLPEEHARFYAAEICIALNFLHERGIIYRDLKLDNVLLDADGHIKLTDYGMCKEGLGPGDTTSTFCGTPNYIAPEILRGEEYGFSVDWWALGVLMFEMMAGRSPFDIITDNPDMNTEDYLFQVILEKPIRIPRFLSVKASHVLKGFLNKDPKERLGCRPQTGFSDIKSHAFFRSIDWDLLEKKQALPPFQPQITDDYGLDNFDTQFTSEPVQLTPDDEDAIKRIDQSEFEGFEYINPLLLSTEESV

synthetic biotin-labeled peptide containing the binding motif (KIBRA position 948-978)
IC50: 60 nM
